Measured values: patent publication US20140274782A1, “AFFINITY REAGENTS AND METHODS FOR DETECTION, PURIFICATION, AND PROTEOMIC ANALYSIS OF METHYLATED PROTEINS” (The Board of Trustees of the Leland Stanford Junior …, priority 2013, published 2014)

Columns and labels:
[1] = biological target: GPX5, G9a-methylated (human) (UniProt O75715); assay: ProtoArray, G9a array SNR minus GST array SNR
[2] = biological target: CRB3, G9a-methylated (human) (UniProt Q9BUF7); assay: ProtoArray, G9a array SNR minus GST array SNR
[3] = biological target: RASSF4, G9a-methylated (human) (UniProt Q9H2L5); assay: ProtoArray, G9a array SNR minus GST array SNR
[4] = biological target: CTSZ, G9a-methylated (human) (UniProt Q9UBR2); assay: ProtoArray, G9a array SNR minus GST array SNR
[5] = biological target: C10orf58, G9a-methylated (human) (UniProt Q9BRX8); assay: ProtoArray, G9a array SNR minus GST array SNR
[6] = biological target: UBE2D2, G9a-methylated (human) (UniProt P62837); assay: ProtoArray, G9a array SNR minus GST array SNR
[7] = biological target: DIRAS1, G9a-methylated (human) (UniProt O95057); assay: ProtoArray, G9a array SNR minus GST array SNR
[8] = biological target: BHMT, G9a-methylated (human) (UniProt Q93088); assay: ProtoArray, G9a array SNR minus GST array SNR
[9] = biological target: LYRM7, G9a-methylated (human) (UniProt Q5U5X0); assay: ProtoArray, G9a array SNR minus GST array SNR
[10] = biological target: PHF20L1, G9a-methylated (human) (UniProt A8MW92); assay: ProtoArray, G9a array SNR minus GST array SNR
[11] = biological target: CTXN1, G9a-methylated (human) (UniProt P60606); assay: ProtoArray, G9a array SNR minus GST array SNR
[12] = biological target: MGC10433 (RNA-binding protein 42), G9a-methylated (human) (UniProt Q9BTD8); assay: ProtoArray, G9a array SNR minus GST array SNR
[13] = biological target: LTC4S, G9a-methylated (human) (UniProt Q16873); assay: ProtoArray, G9a array SNR minus GST array SNR
[14] = biological target: TTC27, G9a-methylated (human) (UniProt Q6P3X3); assay: ProtoArray, G9a array SNR minus GST array SNR
[15] = biological target: LARP6, G9a-methylated (human) (UniProt Q9BRS8); assay: ProtoArray, G9a array SNR minus GST array SNR
[16] = biological target: C1QTNF6, G9a-methylated (human) (UniProt Q9BXI9); assay: ProtoArray, G9a array SNR minus GST array SNR
[17] = biological target: TEAD4, G9a-methylated (human) (UniProt Q15561); assay: ProtoArray, G9a array SNR minus GST array SNR
[18] = biological target: CSF3, G9a-methylated (human) (UniProt P09919); assay: ProtoArray, G9a array SNR minus GST array SNR
[19] = biological target: GPX1, G9a-methylated (human) (UniProt P07203); assay: ProtoArray, G9a array SNR minus GST array SNR
[20] = biological target: C2orf43, G9a-methylated (human) (UniProt Q9H6V9); assay: ProtoArray, G9a array SNR minus GST array SNR
[21] = biological target: SERPINB2, G9a-methylated (human) (UniProt P05120); assay: ProtoArray, G9a array SNR minus GST array SNR
[22] = biological target: DGKA, G9a-methylated (human) (UniProt P23743); assay: ProtoArray, G9a array SNR minus GST array SNR
[23] = biological target: C12orf23, G9a-methylated (human) (UniProt Q8WUH6); assay: ProtoArray, G9a array SNR minus GST array SNR
[24] = biological target: LPAL2, G9a-methylated (human) (UniProt Q16609); assay: ProtoArray, G9a array SNR minus GST array SNR
[25] = biological target: GFOD1, G9a-methylated (human) (UniProt Q9NXC2); assay: ProtoArray, G9a array SNR minus GST array SNR
[26] = biological target: CAB39L, G9a-methylated (human) (UniProt Q9H9S4); assay: ProtoArray, G9a array SNR minus GST array SNR
[27] = biological target: STK17B, G9a-methylated (human) (UniProt O94768); assay: ProtoArray, G9a array SNR minus GST array SNR
[28] = biological target: RAB7B, G9a-methylated (human) (UniProt Q96AH8); assay: ProtoArray, G9a array SNR minus GST array SNR
[29] = biological target: TMEM97, G9a-methylated (human) (UniProt Q5BJF2); assay: ProtoArray methylated with G9a SET domain
[30] = biological target: UBE2S, G9a-methylated (human) (UniProt Q16763); assay: ProtoArray methylated with G9a SET domain
[31] = biological target: PPIL5, G9a-methylated (human) (UniProt Q96L50); assay: ProtoArray methylated with G9a SET domain
[32] = biological target: BHMT, G9a-methylated (human) (UniProt Q93088); assay: ProtoArray methylated with G9a SET domain
[33] = biological target: PHF20L1, G9a-methylated (human) (UniProt A8MW92); assay: ProtoArray methylated with G9a SET domain
[34] = biological target: TCTA, G9a-methylated (human) (UniProt P57738); assay: ProtoArray methylated with G9a SET domain
[35] = biological target: MGC10433 (RNA-binding protein 42), G9a-methylated (human) (UniProt Q9BTD8); assay: ProtoArray methylated with G9a SET domain
[36] = biological target: RDH11, G9a-methylated (human) (UniProt Q8TC12); assay: ProtoArray methylated with G9a SET domain
[37] = biological target: Magmas, G9a-methylated (human) (UniProt Q9Y3D7); assay: ProtoArray methylated with G9a SET domain
[38] = biological target: MOBKL3, G9a-methylated (human) (UniProt Q9Y3A3); assay: ProtoArray methylated with G9a SET domain
[39] = biological target: C2orf43, G9a-methylated (human) (UniProt Q9H6V9); assay: ProtoArray methylated with G9a SET domain
[40] = biological target: RTN1, G9a-methylated (human) (UniProt Q16799); assay: ProtoArray methylated with G9a SET domain
[41] = biological target: SCGB1A1, G9a-methylated (human) (UniProt P11684); assay: ProtoArray methylated with G9a SET domain
[42] = biological target: RPL14, G9a-methylated (human) (UniProt P50914); assay: ProtoArray methylated with G9a SET domain

3× Flag-3×MBT (designed binder), sequence (Q9Y468 258-598): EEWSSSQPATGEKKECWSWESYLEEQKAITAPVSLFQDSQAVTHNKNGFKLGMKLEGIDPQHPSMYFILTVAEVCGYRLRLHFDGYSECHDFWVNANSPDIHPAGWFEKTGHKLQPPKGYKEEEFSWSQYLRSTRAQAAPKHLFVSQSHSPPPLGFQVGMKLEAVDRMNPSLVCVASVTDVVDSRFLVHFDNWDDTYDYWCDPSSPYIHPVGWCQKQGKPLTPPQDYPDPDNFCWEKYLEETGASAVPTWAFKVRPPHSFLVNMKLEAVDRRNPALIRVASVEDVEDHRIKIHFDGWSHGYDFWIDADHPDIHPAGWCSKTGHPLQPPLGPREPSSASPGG
BHMT, G9a-methylated (human), sequence (Q93088 whole entry, the tested form may be a part): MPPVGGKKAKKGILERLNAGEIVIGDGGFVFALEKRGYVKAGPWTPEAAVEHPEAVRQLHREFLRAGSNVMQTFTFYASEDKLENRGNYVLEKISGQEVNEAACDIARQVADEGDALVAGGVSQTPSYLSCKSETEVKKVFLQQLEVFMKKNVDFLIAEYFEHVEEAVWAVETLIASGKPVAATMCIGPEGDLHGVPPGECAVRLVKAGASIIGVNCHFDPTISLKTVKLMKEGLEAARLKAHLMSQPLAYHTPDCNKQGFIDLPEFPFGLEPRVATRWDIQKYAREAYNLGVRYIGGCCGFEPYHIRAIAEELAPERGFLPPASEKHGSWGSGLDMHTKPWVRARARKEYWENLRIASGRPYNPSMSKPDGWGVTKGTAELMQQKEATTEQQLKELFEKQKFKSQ
C2orf43, G9a-methylated (human), sequence (Q9H6V9 whole entry, the tested form may be a part): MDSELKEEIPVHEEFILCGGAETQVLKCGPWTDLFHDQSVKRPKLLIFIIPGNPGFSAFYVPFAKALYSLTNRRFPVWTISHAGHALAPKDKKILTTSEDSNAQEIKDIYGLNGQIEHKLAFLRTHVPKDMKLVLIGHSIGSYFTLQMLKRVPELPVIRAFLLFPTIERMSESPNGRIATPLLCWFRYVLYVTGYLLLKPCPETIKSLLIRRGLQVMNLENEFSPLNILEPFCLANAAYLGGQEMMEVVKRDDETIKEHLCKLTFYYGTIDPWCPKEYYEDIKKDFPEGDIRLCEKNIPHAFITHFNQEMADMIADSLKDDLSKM
MGC10433 (RNA-binding protein 42), G9a-methylated (human), sequence (Q9BTD8 whole entry, the tested form may be a part): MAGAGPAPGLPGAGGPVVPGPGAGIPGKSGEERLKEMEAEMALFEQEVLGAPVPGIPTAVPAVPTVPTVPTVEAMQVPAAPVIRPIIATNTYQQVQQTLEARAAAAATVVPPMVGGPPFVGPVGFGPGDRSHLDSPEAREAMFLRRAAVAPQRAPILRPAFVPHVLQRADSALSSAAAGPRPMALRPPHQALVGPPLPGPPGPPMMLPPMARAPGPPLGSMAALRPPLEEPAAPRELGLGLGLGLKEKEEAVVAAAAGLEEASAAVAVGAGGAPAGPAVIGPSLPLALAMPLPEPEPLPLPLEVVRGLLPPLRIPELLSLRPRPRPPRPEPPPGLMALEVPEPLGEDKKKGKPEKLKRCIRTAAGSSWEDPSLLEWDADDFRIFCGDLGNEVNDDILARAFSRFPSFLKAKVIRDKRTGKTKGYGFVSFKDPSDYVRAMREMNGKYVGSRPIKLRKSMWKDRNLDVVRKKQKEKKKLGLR
PHF20L1, G9a-methylated (human), sequence (A8MW92 other isoform, or with tags, fused parts or gaps limits assumed): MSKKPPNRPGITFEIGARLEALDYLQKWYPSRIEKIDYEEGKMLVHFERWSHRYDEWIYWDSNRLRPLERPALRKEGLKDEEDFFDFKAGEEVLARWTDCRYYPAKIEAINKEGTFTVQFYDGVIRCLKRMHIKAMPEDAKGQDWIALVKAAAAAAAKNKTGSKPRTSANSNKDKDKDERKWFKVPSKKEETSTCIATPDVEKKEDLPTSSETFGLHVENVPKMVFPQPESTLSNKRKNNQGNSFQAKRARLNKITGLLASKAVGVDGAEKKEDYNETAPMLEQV
CTSZ, G9a-methylated (human), sequence (Q9UBR2 24-303 limits assumed): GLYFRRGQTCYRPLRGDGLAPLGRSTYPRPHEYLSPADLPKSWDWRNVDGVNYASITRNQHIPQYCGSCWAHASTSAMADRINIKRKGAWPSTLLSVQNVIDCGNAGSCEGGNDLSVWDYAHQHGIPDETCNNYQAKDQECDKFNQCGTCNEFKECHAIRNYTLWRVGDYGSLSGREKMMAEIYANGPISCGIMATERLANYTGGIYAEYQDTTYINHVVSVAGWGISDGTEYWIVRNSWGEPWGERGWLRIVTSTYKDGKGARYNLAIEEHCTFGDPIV
TCTA, G9a-methylated (human), sequence (P57738 whole entry, the tested form may be a part): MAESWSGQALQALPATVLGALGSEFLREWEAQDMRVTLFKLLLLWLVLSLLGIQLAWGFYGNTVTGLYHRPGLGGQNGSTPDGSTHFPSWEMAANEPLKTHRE
CTXN1, G9a-methylated (human), sequence (P60606 whole entry): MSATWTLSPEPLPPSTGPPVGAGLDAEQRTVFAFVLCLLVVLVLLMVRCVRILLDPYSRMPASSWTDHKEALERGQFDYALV
GPX5, G9a-methylated (human), sequence (O75715 other isoform, or with tags, fused parts or gaps limits assumed): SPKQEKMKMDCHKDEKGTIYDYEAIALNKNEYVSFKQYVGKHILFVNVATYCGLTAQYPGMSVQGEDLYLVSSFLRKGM
LPAL2, G9a-methylated (human), sequence (Q16609 22-132 limits assumed): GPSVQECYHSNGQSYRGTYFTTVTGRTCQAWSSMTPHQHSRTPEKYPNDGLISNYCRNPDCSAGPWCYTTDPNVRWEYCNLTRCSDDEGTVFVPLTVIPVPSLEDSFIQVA
TMEM97, G9a-methylated (human), sequence (Q5BJF2 whole entry, the tested form may be a part): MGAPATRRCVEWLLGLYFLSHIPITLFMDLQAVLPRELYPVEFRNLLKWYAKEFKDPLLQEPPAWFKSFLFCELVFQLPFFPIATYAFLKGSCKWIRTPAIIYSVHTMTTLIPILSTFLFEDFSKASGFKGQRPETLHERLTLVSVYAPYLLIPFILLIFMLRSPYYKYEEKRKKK
RAB7B, G9a-methylated (human), sequence (Q96AH8 whole entry, the tested form may be a part): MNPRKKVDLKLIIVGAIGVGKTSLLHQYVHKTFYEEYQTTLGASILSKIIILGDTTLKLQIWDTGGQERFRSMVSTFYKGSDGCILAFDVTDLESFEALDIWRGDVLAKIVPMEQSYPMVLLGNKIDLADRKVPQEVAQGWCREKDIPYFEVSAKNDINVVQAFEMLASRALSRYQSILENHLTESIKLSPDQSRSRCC
DIRAS1, G9a-methylated (human), sequence (O95057 whole entry): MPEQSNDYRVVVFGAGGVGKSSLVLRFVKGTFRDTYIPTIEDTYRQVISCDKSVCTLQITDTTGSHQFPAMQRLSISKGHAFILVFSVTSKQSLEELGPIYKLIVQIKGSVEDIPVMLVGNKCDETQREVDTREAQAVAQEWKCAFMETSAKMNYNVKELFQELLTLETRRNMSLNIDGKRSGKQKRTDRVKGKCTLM
C1QTNF6, G9a-methylated (human), sequence (Q9BXI9 47-278 limits assumed): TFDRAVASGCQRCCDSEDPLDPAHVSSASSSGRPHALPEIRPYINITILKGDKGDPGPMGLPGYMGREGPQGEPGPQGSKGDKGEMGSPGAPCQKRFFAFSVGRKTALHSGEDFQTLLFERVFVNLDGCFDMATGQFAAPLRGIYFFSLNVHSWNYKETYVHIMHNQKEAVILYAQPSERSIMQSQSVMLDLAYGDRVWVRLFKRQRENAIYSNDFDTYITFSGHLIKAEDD
DGKA, G9a-methylated (human), sequence (P23743 whole entry): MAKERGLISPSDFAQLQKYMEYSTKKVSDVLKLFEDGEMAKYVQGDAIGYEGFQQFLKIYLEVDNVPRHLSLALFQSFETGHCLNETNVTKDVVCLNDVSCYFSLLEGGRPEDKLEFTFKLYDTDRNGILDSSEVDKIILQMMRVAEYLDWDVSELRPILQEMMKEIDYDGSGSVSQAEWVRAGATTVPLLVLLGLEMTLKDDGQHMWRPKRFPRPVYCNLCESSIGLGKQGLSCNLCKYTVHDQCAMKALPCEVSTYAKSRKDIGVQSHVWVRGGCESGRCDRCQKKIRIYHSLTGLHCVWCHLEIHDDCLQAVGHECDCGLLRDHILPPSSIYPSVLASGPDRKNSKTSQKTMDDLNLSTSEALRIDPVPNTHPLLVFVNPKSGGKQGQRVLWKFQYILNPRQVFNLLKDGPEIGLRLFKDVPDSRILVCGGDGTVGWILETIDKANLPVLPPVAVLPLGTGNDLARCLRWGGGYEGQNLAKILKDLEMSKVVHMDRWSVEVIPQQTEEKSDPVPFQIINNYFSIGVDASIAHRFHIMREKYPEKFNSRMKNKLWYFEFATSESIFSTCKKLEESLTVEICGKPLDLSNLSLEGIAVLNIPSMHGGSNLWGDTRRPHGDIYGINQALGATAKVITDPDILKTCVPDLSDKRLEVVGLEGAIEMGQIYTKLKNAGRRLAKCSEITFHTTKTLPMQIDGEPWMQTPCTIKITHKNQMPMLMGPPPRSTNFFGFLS
RDH11, G9a-methylated (human), sequence (Q8TC12 whole entry, the tested form may be a part): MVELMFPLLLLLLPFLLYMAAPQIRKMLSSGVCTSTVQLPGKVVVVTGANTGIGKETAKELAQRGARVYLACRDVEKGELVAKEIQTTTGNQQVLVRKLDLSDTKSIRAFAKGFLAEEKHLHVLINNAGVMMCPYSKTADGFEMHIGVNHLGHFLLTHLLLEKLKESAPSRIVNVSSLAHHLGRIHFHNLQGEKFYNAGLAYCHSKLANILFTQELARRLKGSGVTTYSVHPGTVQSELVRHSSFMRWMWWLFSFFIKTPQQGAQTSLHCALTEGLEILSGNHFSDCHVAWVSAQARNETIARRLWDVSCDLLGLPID
Magmas, G9a-methylated (human), sequence (Q9Y3D7 whole entry, the tested form may be a part): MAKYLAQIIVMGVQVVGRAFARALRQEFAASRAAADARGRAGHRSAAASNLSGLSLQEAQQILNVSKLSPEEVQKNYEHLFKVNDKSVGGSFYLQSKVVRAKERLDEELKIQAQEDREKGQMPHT
CSF3, G9a-methylated (human), sequence (P09919 31-207 limits assumed): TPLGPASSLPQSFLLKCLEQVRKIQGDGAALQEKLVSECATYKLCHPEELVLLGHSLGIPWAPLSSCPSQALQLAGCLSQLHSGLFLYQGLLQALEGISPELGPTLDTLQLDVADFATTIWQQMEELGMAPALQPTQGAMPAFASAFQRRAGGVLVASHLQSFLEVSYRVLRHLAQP
LYRM7, G9a-methylated (human), sequence (Q5U5X0 whole entry): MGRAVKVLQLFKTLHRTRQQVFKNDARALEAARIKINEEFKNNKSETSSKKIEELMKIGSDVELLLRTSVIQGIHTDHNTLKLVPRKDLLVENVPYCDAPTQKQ

G9a-GST [1]: 25.6
G9a-GST [2]: 15.5
G9a-GST [3]: 14.6
G9a-GST [4]: 12.3
G9a-GST [5]: 16
G9a-GST [6]: 37.6
G9a-GST [7]: 28.2
G9a-GST [8]: 15.2
G9a-GST [9]: 16.9
G9a-GST [10]: 20.4
G9a-GST [11]: 18.7
G9a-GST [12]: 14.5
G9a-GST [13]: 12.9
G9a-GST [14]: 20.2
G9a-GST [15]: 16.6
G9a-GST [16]: 16.8
G9a-GST [17]: 16.1
G9a-GST [18]: 17.7
G9a-GST [19]: 14.5
G9a-GST [20]: 12.1
G9a-GST [21]: 17.3
G9a-GST [22]: 14.3
G9a-GST [23]: 12.2
G9a-GST [24]: 33
G9a-GST [25]: 16
G9a-GST [26]: 14.5
G9a-GST [27]: 13.8
G9a-GST [28]: 13
G9a Average SNR [29]: 21.2
G9a Average SNR [30]: 25
G9a Average SNR [31]: 11.8
G9a Average SNR [32]: 16.6
G9a Average SNR [33]: 21.5
G9a Average SNR [34]: 16.4
G9a Average SNR [35]: 14.1
G9a Average SNR [36]: 26.6
G9a Average SNR [37]: 13.9
G9a Average SNR [38]: 13.6
G9a Average SNR [39]: 11.9
G9a Average SNR [40]: 14.7
G9a Average SNR [41]: 19.6
G9a Average SNR [42]: 18.4
Substance: 3× Flag-3×MBT (designed binder)
